For this data set, the target named is T1, hATP11C-GFP (human ATP11C tagged with GFP at the C-terminus), Q8NB49.
T1 chain: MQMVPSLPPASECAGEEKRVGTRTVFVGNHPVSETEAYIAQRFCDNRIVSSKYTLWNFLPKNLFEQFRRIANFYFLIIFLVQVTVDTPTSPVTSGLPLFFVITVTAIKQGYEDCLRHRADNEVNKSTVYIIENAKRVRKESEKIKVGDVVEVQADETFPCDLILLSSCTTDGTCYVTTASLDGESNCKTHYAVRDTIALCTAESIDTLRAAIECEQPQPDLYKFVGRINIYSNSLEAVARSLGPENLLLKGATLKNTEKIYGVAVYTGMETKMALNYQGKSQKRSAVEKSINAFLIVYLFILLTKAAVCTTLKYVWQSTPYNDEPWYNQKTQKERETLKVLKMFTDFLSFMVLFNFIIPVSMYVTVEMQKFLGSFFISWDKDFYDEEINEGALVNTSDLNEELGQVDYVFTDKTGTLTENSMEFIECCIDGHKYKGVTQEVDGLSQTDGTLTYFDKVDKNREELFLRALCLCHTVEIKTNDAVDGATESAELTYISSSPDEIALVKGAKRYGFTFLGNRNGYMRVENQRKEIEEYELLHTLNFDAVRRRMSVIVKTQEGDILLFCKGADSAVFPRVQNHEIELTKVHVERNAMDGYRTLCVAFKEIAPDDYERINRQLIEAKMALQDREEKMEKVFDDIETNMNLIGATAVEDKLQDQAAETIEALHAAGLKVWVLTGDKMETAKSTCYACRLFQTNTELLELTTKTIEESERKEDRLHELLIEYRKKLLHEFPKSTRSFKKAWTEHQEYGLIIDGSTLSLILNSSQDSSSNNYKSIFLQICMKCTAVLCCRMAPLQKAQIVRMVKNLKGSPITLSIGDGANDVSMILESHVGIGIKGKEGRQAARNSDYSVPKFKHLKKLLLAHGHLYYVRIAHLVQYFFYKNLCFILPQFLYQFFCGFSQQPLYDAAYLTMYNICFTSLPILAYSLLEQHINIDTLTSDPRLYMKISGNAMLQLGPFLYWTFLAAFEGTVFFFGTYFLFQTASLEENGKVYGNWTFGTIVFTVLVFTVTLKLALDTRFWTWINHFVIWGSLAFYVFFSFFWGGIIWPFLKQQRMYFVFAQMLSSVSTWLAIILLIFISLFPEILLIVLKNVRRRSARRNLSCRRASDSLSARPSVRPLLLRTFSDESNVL

B1: recombinant human caspase-7 (Biovision) (protein)
chain: AKPDRSSFVPSLFSKKKKNVTMRSIKTTRDRVPTYQYNMNFEKLGKCIIINNKNFDKVTGMGVRNGTDKDAEALFKCFRSLGFDVIVYNDCSCAKMQDLLKKASEEDHTNAACFACILLSHGEENVIYGKDGVTPIKDLTAHFRGDRCKTLLEKPKLFFIQACRGTELDDGIQADSGPINDTDANPRYKIPVEADFLFAYSTVPGYYSWRSPGRGSWFVQALCSILEEHGKDLEIMQILTRVNDRVARHFESQSDDPHFHEKKQIPCVVSMLTKELYFSQ
B1: the “cleavage of hATP11C-GFP in solubilized membrane fraction, Western blotting with anti-GFP” value is “hATP11C was cleaved by caspase-3, -6 and -7”.

B2: recombinant human caspase-3 (Biovision) (protein)
chain: SGISLDNSYKMDYPEMGLCIIINNKNFHKSTGMTSRSGTDVDAANLRETFRNLKYEVRNKNDLTREEIVELMRDVSKEDHSKRSSFVCVLLSHGEEGIIFGTNGPVDLKKITNFFRGDRCRSLTGKPKLFIIQACRGTELDCGIETDSGVDDDMACHKIPVEADFLYAYSTAPGYYSWRNSKDGSWFIQSLCAMLKQYADKLEFMHILTRVNRKVATEFESFSFDATFHAKKQIPCIVSMLTKELYFYH
For B2, the “cleavage of hATP11C-GFP in solubilized membrane fraction, Western blotting with anti-GFP” value is “hATP11C was cleaved by caspase-3, -6 and -7”.

B3: recombinant human caspase-6 (Biovision) (protein)
chain: AFYKREMFDPAEKYKMDHRRRGIALIFNHERFFWHLTLPERRGTCADRDNLTRRFSDLGFEVKCFNDLKAEELLLKIHEVSTVSHADADCFVCVFLSHGEGNHIYAYDAKIEIQTLTGLFKGDKCHSLVGKPKIFIIQACRGNQHDVPVIPLDVVDNQTEKLDTNITEVDAASVYTLPAGADFLMCYSVAEGYYSHRETVNGSWYIQDLCEMLGKYGSSLEFTELLTLVNRKVSQRRVDFCKDPSAIGKKQVPCFASMLTKKLHFFPKSN
In the case of B3, the “cleavage of hATP11C-GFP in solubilized membrane fraction, Western blotting with anti-GFP” value was “hATP11C was cleaved by caspase-3, -6 and -7”.

Values taken from patent US20170023548.
